Data taken from article PMC11617747 (Heliyon, 2024).

Tests used:
N-MabR = biological target: T1, N-MabR (Mycobacterium tuberculosis, UniProt P9WPH5 1-160); assay: EMSA; up to 20 uM protein; […], room temperature 30 min; ITC: 50 mM Tris pH 7.5, 150 mM NaCl, 20 C; settings: protein: recombinant; tags: N-terminal 6xHis (pET28a); chain copies: 2; blunt
T1 sequence: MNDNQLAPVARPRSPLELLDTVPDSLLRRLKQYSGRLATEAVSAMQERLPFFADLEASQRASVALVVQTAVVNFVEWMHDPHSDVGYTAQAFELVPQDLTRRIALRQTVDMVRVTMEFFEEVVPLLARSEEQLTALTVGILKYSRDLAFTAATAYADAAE

C-MabR [1] = biological target: T2, C-MabR (Mycobacterium tuberculosis, UniProt P9WPH5 161-414); assay: TSA (isothermal analysis); 46 C, apparent; […], room temperature 30 min; ITC: 50 mM Tris pH 7.5, 150 mM NaCl, 20 C; settings: protein: recombinant; tags: N-terminal 6xHis (pET28a); chain copies: 2; blunt
T2 sequence: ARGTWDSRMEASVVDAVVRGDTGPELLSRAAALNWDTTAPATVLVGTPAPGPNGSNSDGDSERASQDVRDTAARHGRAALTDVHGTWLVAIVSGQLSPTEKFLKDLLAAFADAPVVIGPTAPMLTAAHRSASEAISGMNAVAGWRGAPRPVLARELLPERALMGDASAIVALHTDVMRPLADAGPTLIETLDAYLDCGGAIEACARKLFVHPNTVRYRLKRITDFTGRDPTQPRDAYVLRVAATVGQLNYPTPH

C-MabR [2] = biological target: T2, C-MabR; assay: ITC; 20 C; 50 mM Tris pH 7.5, 150 mM NaCl; […]; […], room temperature 30 min; ITC: 50 mM Tris pH 7.5, 150 mM NaCl, 20 C; settings: protein: recombinant; tags: N-terminal 6xHis (pET28a); chain copies: 2; blunt
SEC = biological target: the molecule itself; assay: SEC
crystal structure = biological target: the molecule itself; assay: crystal structure

B1: 23-bp FAS-II promoter dsDNA (dsDNA)
DNA 1: GTTTTGTTGGTTATATACAAAAA
DNA 2: TTTTTGTATATAACCAACAAAAC
With B1 the binding result (N-MabR) was “no binding”, the Kd (C-MabR [1]) was roughly 1000 nM and the Kd (C-MabR [2]) was 4300 nM.

B2: N-terminal domain of Mycobacterium tuberculosis MabR (Rv2242), residues 1-160 (domain or fragment)
chain: MNDNQLAPVARPRSPLELLDTVPDSLLRRLKQYSGRLATEAVSAMQERLPFFADLEASQRASVALVVQTAVVNFVEWMHDPHSDVGYTAQAFELVPQDLTRRIALRQTVDMVRVTMEFFEEVVPLLARSEEQLTALTVGILKYSRDLAFTAATAYADAAE
With B2 the “stoichiometry N” value (SEC) was 2.

B3: C-terminal domain of Mycobacterium tuberculosis MabR (Rv2242), residues 161-414 (domain or fragment)
chain: ARGTWDSRMEASVVDAVVRGDTGPELLSRAAALNWDTTAPATVLVGTPAPGPNGSNSDGDSERASQDVRDTAARHGRAALTDVHGTWLVAIVSGQLSPTEKFLKDLLAAFADAPVVIGPTAPMLTAAHRSASEAISGMNAVAGWRGAPRPVLARELLPERALMGDASAIVALHTDVMRPLADAGPTLIETLDAYLDCGGAIEACARKLFVHPNTVRYRLKRITDFTGRDPTQPRDAYVLRVAATVGQLNYPTPH
B3: binds (crystal structure).
